Measurements taken from PMC11445502, “CDK phosphorylation of Sfr1 downregulates Rad51 function in late-meiotic homolog invasions” (The EMBO Journal, 2024).

Columns and labels:
Rad51 [1] = target: Rad51 (UniProt P36601); experiment: focus co-localisation on nuclear spreads; conditions: reference: EGFP-Sfr1 wild type; sites T73,T89,S109,S116,S147,T152,S165
Rad51 [2] = target: Rad51 (UniProt P36601); experiment: GST pulldown from mixed bacterial lysates; conditions: reference: wild-type GST-Sfr1; sites T73,T89,S109,S116,S147,T152,S165
GST-Sfr1-7A = target: T1, GST-Sfr1-7A (S. pombe, UniProt Q9USV1 1-299, Thr73 to Ala | Thr89 to Ala | Ser109 to Ala | Ser116 to Ala | Ser147 to Ala | …); experiment: pull-down; GST-Sfr1 lysates (~2 mg) and Rad51 extract (75 ug) from E. coli mixed, Glutathione Sepharose 4B, 1 h at 4 °C; pulldown buffer 25 mM HEPES-KOH pH 7.5, 150 mM NaCl, 3.5 mM MgCl2, 0.5 mM DTT, 0.05 mg/ml BSA, 10% glycerol, 0.05% Igepal; western blot anti-GST and anti-Rad51; Rad51/GST ratio quantified; conditions: partners not purified
T1 construct: Sfr1, S. pombe, all seven putative CDK sites changed to alanine; pGEX-4T-1 should put GST at the N-terminus (surmised); Partly degraded as m1; also called pGEX-4T-1 sfr1-7A (CMC102); source: E. coli BL21 DE3, in cleared lysate
T1 sequence (looked up): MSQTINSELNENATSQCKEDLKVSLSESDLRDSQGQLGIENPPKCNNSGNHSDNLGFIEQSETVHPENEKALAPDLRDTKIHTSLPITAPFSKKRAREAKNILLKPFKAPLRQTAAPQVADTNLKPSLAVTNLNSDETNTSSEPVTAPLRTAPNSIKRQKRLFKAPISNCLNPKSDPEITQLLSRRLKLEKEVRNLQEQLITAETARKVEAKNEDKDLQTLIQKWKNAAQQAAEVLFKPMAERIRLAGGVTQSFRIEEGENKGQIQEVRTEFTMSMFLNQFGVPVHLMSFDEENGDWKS

GST-Sfr1-WI = target: T2, GST-Sfr1-WI (S. pombe, UniProt Q9USV1 1-299, Lys93 to Ala | Lys94 to Ala | Arg95 to Ala | Lys157 to Ala | Arg158 to Ala | …); experiment: as above; conditions: partners not purified
T2 construct: Sfr1, S. pombe, seven arginine and lysine residues of Site 1 and Site 2 changed to alanine; pGEX-4T-1 should put GST at the N-terminus (surmised); Partly degraded as m1; also called pGEX-4T-1 sfr1-WI (CMC98); source: E. coli BL21 DE3, in cleared lysate
T2 sequence (looked up): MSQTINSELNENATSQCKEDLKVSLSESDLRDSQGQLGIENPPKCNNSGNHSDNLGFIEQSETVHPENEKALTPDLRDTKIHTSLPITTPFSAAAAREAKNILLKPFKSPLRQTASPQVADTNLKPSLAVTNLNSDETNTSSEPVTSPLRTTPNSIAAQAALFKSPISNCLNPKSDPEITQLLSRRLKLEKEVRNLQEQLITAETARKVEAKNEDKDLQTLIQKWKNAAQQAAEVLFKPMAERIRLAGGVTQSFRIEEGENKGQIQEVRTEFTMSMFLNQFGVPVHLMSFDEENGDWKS

How did the “other: % of Rad51 foci co-localised with EGFP-Sfr1 foci” value (Rad51 [1]) turn out when Sfr1 (from UniProt Q9USV1) EGFP-Sfr1-7A was run?
The value was “same; reference 78”.

Sfr1 (from UniProt Q9USV1) EGFP-Sfr1-7D was tested. Which “other: % of Rad51 foci co-localised with EGFP-Sfr1 foci” value (Rad51 [1]) did it give?
The value was “weaker; reference 78”.

With Sfr1 (from UniProt Q9USV1) GST-Sfr1-7A as the molecule, how does the percent of reference (Rad51 [2]) read?
Its percent of reference is 81%.

B1: Rad51 (untagged) (natural protein, S. pombe, UniProt P36601 1-365, looked up)
chain: MADTEVEMQVSAADTNNNENGQAQSNYEYDVNVQDEEDEAAAGPMPLQMLEGNGITASDIKKIHEAGYYTVESIAYTPKRQLLLIKGISEAKADKLLGEASKLVPMGFTTATEYHIRRSELITITTGSKQLDTLLQGGVETGSITELFGEFRTGKSQICHTLAVTCQLPIDMGGGEGKCLYIDTEGTFRPVRLLAVADRYGLNGEEVLDNVAYARAYNADHQLELLQQAANMMSESRFSLLVVDSCTALYRTDFSGRGELSARQMHLARFMRTLQRLADEFGIAVVITNQVVAQVDGISFNPDPKKPIGGNILAHSSTTRLSLRKGRGEQRICKIYDSPCLPESEAIFAINSDGVGDPKEIIAPV
notes: Rad51 recombinase, S. pombe, untagged, in pET-11d; Plasmid ordered from GeneUniversal or GeneCust; also called pET-11d rad51 (CMC99); recombinase Rad51; source: E. coli BL21 DE3, in cleared lysate
B1 was tested. Which “efficiency of binding compared to control GST-Sfr1 (Rad51/GST ratio)” value (GST-Sfr1-7A) did it give?
Its value is 81%.

And the “efficiency of binding compared to control GST-Sfr1 (Rad51/GST ratio)” value (GST-Sfr1-WI)?
The value was 17%.
